Experimental data from a protein production outcome set (Wang et al. 2014).

Experiment: label from the status in PepcDB records
With “MMPLSTPDFASIRDTLLRDLQNLRADADIAPDSDYFVRASSVASAVEGLYQHQSWIARQIFPDTADSEYLEQHARLRGIVRKPAAAASGTLRISGNAGAVVSGSLQLRIGEQLYATPAANPDGSPYAARLDANGQAELPIFASQAGAAGNQPESLPVELMQAPSGVSAKALLLSMRNGVDVEDDAALLDRLLELIRRPPAGGNRHDYRRWAMEVKGVSAAYVYPLRRGLGTVDVVITANGDLPSQEILNNVQAHIEDLRPVTAKSCLVLAPTPRPVDIDVALNLGGANLDAFTPLLQQTLQAYFAGLAPGERLVKSRIEALISDLPGVQDRQLNSPAGNVDPVSDPTKVEWLRLGKLTVGLLKLEHHHHHH” the protein production was “not failed”. With “MMPNRNTNMLLAYKRLPNWTANSIPETLLNPHNTKVGTWEQLTVLSGKLDVYFFDKDDHVLEKLTFDKDSQMPFIQPQVCYKIEPASNDLECHLTLYCQKGDYFNKKYGMTKTHSEVLFSAPYLKENSKILDLGSGQGRNSLYLTMLGHDVTSVDTNEQSLIHLKNIANEENLPSKINWYDINTANLQETYDFILSTVVFMFLNRPVVPDIIKDMQKHTAIGGYNLIVCAMDTKSYPCPIPFPFTFKKGELKDYYKEWYLIKYNEDLGQLHKTDANGNRLQMQFATLLAKKVK” the protein production was “failed”. For “MMPSSSTPNAFQYAWRNPWVRLVVFLGLFYLLYLFIGQITTVLVDFAVAFLIAYLANPLLGWLERGRVRRGLGVFFVLLLFLGLLALAGALVVTVGGQFVQLFQNLPAQIDNLNRILDGAVQWLSGRGIPGLADAQTRMTEALRDWIANIGNNIVPILQNALSSTGTLFNRLISIGGVIGQVLLILLLSVYLMLDYARVNASLLRAFPRPWQPKVLEFSDLIGTAVGGYVRGQLLIAAFIGIFVWLGLTIVGIPSAAAIGFLAGAFNIVPYLGPIIGATPALLLALTLPNAGFKMILVVVVFVLANQIEGNFLSPYILSKTTDLHPVTVLLAILVGVALMGFAGALLAVPLVALGKLMLEKYYYPSRVYSQGP”, the protein production was “failed”. In the case of “MMPYITDIAALEHVGVAAAWTEKVPAFRVLREKRMLDFRAPITVITGENGVGKSTLLEAIAINAGFDTAGGEHTGKFKPSDNPLQTVAKAHKGKEPMRGYFLRAETHFNVASGYRDEAPGWVNLHHMSHGESVMHIVQNAFVGKGLYLMDEPEAGLSFIRQMAILAELNFLAESGAQIIIVTHSPVLMAIPGAEIWEFSASGELHRGFDFEVTTAFRALRDFFEDPEEIAEYMMDVMMDNKGESLEHHHHHH”, the protein production is reported as “failed”. For “MMQDCEKLLDEPGRLAAVRRYAVLDTAPEEPFDKLTRLVCNVLEVPYAAVTLIDADRQWFKSLVGLSGSEGPRHESFCTHTIKTRDPMIVPDATLDPRFRDSPLVTGAAGIRSYLGVPLETPDGYNLGALCAVDTAPRTFSTSQIEIMKSFASLVLDELELRQIALSDALTGAMTRRGWLAAVEKEMARGARQGTQAAIVLFDVDHFKAINDTHGHAVGDAVLQALTRRCLLHLGPADALGRIGGEEFAVLVPDAGLPEAMELAERLRRSFSDAPIEVAGQALRVTASFGVQGLDGDTGNAGSWLAAADRRLYEAKAAGRNRCHGG”, the protein production was “failed”. For “MMQHCAPTPRLARFLFVEYRMMRQYELVERVQKYKPDANEALLNKAYVYAMQKHGQQKRANGDPYISHPLEVAAILTEMHLDESTIAVALLHDTIEDTTATRAEIDELFGEDIGRLVEGLTKLKKLDLVTRKAKQAENLRKLLLAISDDVRVLLVKLADRLHNMRTMEYMPADKRSRISEETMEIYAPLAGRMGMQDMRDELEDLSFRYLNPEAYETVTNRLLELETRNEGLIKKIEDELRELLVANGLLGTHVKGRQKKPYSVFRKMQSKSLSFEQLSDVYGFRILVDDIPGCYRALGIVHTRWRVVPGRFKDYISTPKQNDYRSIHTTIVGPSRQRIELQIRTKRMHEIAEFGIAAHALYKDGENGEGDLLSKESNAYSWLRHTIESLAEGDSPEEFLEHTKLELFQDQVFCFTPKGKLIALPRGATPIDFAYAVHTNIGDTTVGAKINGRIMPLVTRLNNGDEVEIIRSGVQVPPAAWEEVVVTGKARSAIRRATRMAIRKQYSGLGYRILERTFERAGKAFSREALKPVLHRLAQKDVEDAIAAVGRGEVSSLDVLRAVFPDYQDERVTVKMTGDDGWFNMRSASGMVFKIPGKSRSVLEDDGAAEMLDGPDPLPIRGLSGNVDVHFSAAGAVPGDRIVGIMEKGKGITIYPIQAPALQRFDDEPERWIDVRWDLDEANKSRFMARVMINALNEPGTLASVAQSIATLDVNIRGLNMVRIGTDFSELALDVEVWDLRQLNQLLSQLKDLDCVSTVARAFD”, the protein production was “failed”. For “MMQIDSIEIGGKVYQFFKSDLGNAPLLFIKGSKGYAMCGYLNMETSNKVGDIAVRVMGVKTLDDMLSAKVVEASQEAQKVGINPGDVLRNVIDKL”, the protein production was “not failed”. With “MMQSRRVQESLVGLVILAGLATLGVGLLWLRGNLAGANSYTLEVELDTAPGLAVGTQVRYRGVQVGRVTAIGFDANGVQVSVRINNVLIPRRAVPEIRQSGFIGQAFLDFTPKERVPEIPEGVTAFAPKCQPELVYCNGDRVTGVRTASLEDLVRAATRFTTALEESGLINNANTLILGATRIVNRADQSLTKVTTALDSFNALSNQARAELRNFGIAAQAVTRAANQISEIVEVNRNTINSSLRNIDSAARELRTTLKALHPLTNQLEQGELLANLDALIKNGAEAAANLNKVSGALSSPLIMLSIAQTLDAARATFINAQKLTNDLLKLTSDPSFQSDLRRLIQILRRLLASSQDLEQQFLALHATSLGEAHEPMPAISAPTAAAKPTKEEEPEP” the protein production was “failed”. With “MMREFEIERQFNIKIEYIKPNKGVYFVKTNKGNKCLKKINYGIQKLLFVYAAKEHLINNGFKYVDKYCLNTEGNPYALVNEDIYTLSEWIEGRECSFYDTEDLVKASKTLAKMHECSKGYEPPENSKLKSDLGRWPHLIEKRVKALDKMRDMARKKGNKKDFDMNYIKNVDFFKEQGIKSMNVLKNSKYESLCAVAEEEKGFCHHDYTYHNIIINNEDNVYVIDFDYCKRELRAYDISNFMIKVLKRSNWSMKTAELILDSYSSISKLDDDEYGVIYAFLIFPQRFWRLANRYYYNEVNWGQNTFNNKMEELIEERERYIKFIEDFREAYNLQ” the protein production was “failed”. In the case of “MMRFLFVDRIVQLSPGEWIKGIKHVTRDDAYLTTDDHGRLCFMPSLIGETLGQLAAWNVMQHNHFTARPVAGVVSSARLYRPAYVGETILLESNIDSLDEKAVQYHSIAKVGNDIIFTIDGALGPMLPMTEFISTEVIRQQFAEIYRPGDWSSVLALSSPVLIEENCSDCGMINSSMQFDRILASQPGISLIAEKRITRSASYFPDHFPKRPVLPMTVLLECKLNLAKEFIARAKYDRAYRISELRKIKMNEFVHPGDVVVCQVKVKQQMDDELILSYRCEVDGKRVCVVDIVLIPKGK”, the protein production is reported as “failed”. In the case of “MMRLANGIVLDKDTTFGELKFSALRREVRIQNEDGSVSDEIKERTYDLKSKGQGRMIQVSIPASVPLKEFDYNARVELINPIADTVATATYQGADVDWYIKADDIVLTKDSSSFKAQPQAKKEPTQDKLEHHHHHH”, the protein production is reported as “not failed”. With “MMRPKVYFKTFGCRTNLFDTQIMIKNLQNFELTEIEESADIVVVNSCTVTNGADSGVRSYLHRLKSEGKRVYLTGCGVLTRGEEIFTQELAFGVFGHSYKEQIDSLLSQKTRFSFKGDLEHIDSTVITEFIGKSRAFVKVQEGCDFSCSYCIIPSVRGKARSLPVDRIVSQVEILAQHGFGEFVLTGTNVGSYGKESGLNVAKLLKALSQIKGVKRLRLGSLEPSQIDAEFMELLEEPFMARHLHIALQHTSPKMLQIMNRRNEAQGDLALFERLAQKGYALGTDFILGHPGESEEVWKEAWERFVAFPLTHLHAFVYSPREGTPSSLMKDRISGNIAKERMRILQERVRENNHHFRQKGEKLWVLIESEREGGLYQGLDQFFNRIEIRSSDSLAGRWLEVSDYEAESEINRAELL” the protein production was “failed”. In the case of “MMRVKFNGKELDTDFKTSLEFFENISKNENDVWIINGFATKENIALNENDELFCIEKNTLPPKDALDAMMRARHTPKLHDKLKNGRVAVCGLGGLGSHIAINLARSGVGYLKLIDFDVIEPSNLNRQAYRVSDLGKFKTEALKEQISEINPYISVEICTLKIDEDNLESLFKDIDIVCEAFDSAIAKAMIAQNFHRFYKDGILICASGLAGYGDSNSIQTRKIAKNFYVCGDLVNGAKLGNGLMAPRVNICAGHQSNLVLELLANKELEHHHHHH”, the protein production is reported as “not failed”. With “MMRYKEEKEVKKEAFRKYLESSGVLDSLTKVLVSLYEQNDKPSSALEFIQQKLGGPSVSDYEKLQAEKSDLQIKYNELLAKHQETLRELNGVKSLHSRNSSKDDADRETLEAEHTTLVTPHH” the protein production was “failed”. In the case of “MMSGLVYRKRRRQNMTALERSWFEEAQQSMHGWDFSHLAGRWQTADLPWDYAALVREHLSADDRWLDIDTGGGELMGRFNPQPALTAVTEGWQPNIELLKQTVVKKGITLYPDAAEQLTAVPNSTFDIVTNSHGAMPVKRIAEVLKPGGRFVTQQVGATNNYALSRFFDEHYETAYPDNQLLTVMAQMQAAGFEILRAEQAYAALSFTDVGAIVYYATVIPWEFPHFDVARMLPKLHQLQSLLAINGRVTTFEDRFMIIARKLARRD”, the protein production is reported as “failed”. For “MMSKVVSKMKSFLGFDEFEDEDEVMEEEEVMEEEESFAPVLSSKKNGKVVNIHTANTAKLMITKPLVYDDATEICTALKNRKIVVINTTSLELRTAQRLIDFVGGACYALCGELQEVEKGVFIVSPSNVEVSNELKSELSNKGMFNWASKLEHHHHHH”, the protein production was “not failed”. For “MMSNLIILPMLLPFVCALILVFTKNKNRISKILSITTMIVNTMISIALLIYVVNHKPITLDFGGWKAPFGIQFLGDSLSLLMVSVSSFVVTLIMAYGFGRGEKRVNRFHLPTFILLLTVGVIGSFLTSDLFNLYVMFEIMLLASFVLVTLGQSVEQLRAAIVYVVLNILGSWLLLLGIGMLYKTVGTLNFSHLAMRLNHMENNQTITMISLVFLVAFSSKAALVIFMWLPKAYAVLNTELAALFAALMTKVGAYALIRFFTLLFDHHPSVTHTLLVFMACITMIIGAFGVIAYKDIKKIAAYQVILSIGFIILGLGSHTISGVNGAIFYLANDIIVKTLLFFVIGSLVYMSGYRNYQYLSGLAKREPFFGVAFVVVIFAIGGVPPFSGFPGKVLIFQGAITNGNYIGLALMIVTSLIAMYSLFRVMFIMYFGDADGEQVQFRPLPIYRKGLLSVLVVVVLAMGIAAPVVLKVTEDATNLNMKEDVFQKNVNTHLKEVNHK”, the protein production was “failed”. For “MMTDEARAKLAAIPMLAGYTGPLERLGGLTNLVFRAGDLCLRIPGKGTEEYINRANEAVAAREAAKAGVSPEVLHVDPATGVMVTRYIAGAQTMSPEKFKTRPGSPARAGEAFRKLHGSGAVFPFRFELFAMIDDYLKVLSTKNVTLPAGYHDVVREAGGVRSALAAHPLPLAACHCDPLCENFLDTGERMWIVDWEYSGMNDPLWDLGDLSVEGKFNANQDEELMRAYFGGEARPAERGRVVIYKAMCDLLWTLWGLIQLANDNPVDDFRAYADGRFARCKALMETPEFSRHLAAVRMG”, the protein production was “not failed”. In the case of “MMTKFWNDRYKSDEYFYGEEPNTFIKEQAFRLANHNKVIAFAEGEGRNAVFLARQGNEVTAIDYSEDGLEKTKKLAEKHNVNVHTKKVDLLADSLPENEYDAAIMVFGHFHDDYKKMILGKMIQTIKPGGLIMFEVYSKKQINYGTGGPKDVDMLYDPIDILTWCEEHKVIHFFNGEQERIEGKGHTGLADVIQVVIRK”, the protein production is reported as “failed”. With “MMTKYGVVGTGYFGAELARFMSKVEGAKITAIYDPVNAAPIAKELNCVATATMEALCSHPDVDCVIIASPNYLHKAPVIAAAKAGKHVFCEKPIALNYQDCKDMVDACKEAGVTFMAGHVMNFFHGVRHAKALIKAGEIGEVTQVHTKRNGFEDVQDEISWKKIRAKSGGHLYHHIHELDCTLFIMDETPSLVSMAAGNVAHKGEKFGDEDDVVLITLEFESGRFATLQWGSSFHYPEHYVLIEGTTGAILIDMQNTAGYLIKAGKKTHFLVHESQAEDDDRRNGNISSEMDGAIAYGKPGKRTPMWLSSIMKLEMQYLHDVINGLEPGEEFAKLLTGEAATNAIATADAATLSSNEGRKVKLTEILGLEHHHHHH” the protein production was “not failed”. For “MMTLNAFIEKLSTQPELIEFTETMAVIESHYEFTPTEFANGNTVNLADQNNGSCKIFAFALLNQLSVDQTLACFGQYYRQDVLENPQGDDHQNIRNFMVTGWAGVQFKAQALQAK”, the protein production was “failed”.
